# Data as given in patent US20140357577A1, “HIV Membrane Fusion Inhibitors” (priority 2011, published 2014).
# Starred links: 1 amine or outer side, 2 acyl side, 3 side chain; linkers in the order of their positions; H or OH if unused. Positions of bridges follow the written chain, without caps; N, C: chain ends. Non-standard residues stand in square brackets, D forms with d. B21 = 2,7-dimethylnaphtyl, c1cc2ccc(C[*:2])cc2cc1C[*:1]; pXylylene = c1cc(C[*:2])ccc1C[*:1]; hCys = N[C@@H](CCS)C(=O)O; B1 = not defined here
# B1: peptide 78 (peptide)
# peptide: Ac-A[hCys]YAA[hCys]IEALIRAAQEQQEKNEAALR-NH2
# modifications: linker 2-6 via B21
# SMILES: CC[C@H](C)[C@H](NC(=O)[C@H](CC(C)C)NC(=O)[C@H](C)NC(=O)[C@H](CCC(=O)O)NC(=O)[C@@H](NC(=O)[C@@H]1CCSCc2ccc3ccc(cc3c2)CSCC[C@H](NC(=O)[C@H](C)NC(C)=O)C(=O)N[C@@H](Cc2ccc(O)cc2)C(=O)N[C@@H](C)C(=O)N[C@@H](C)C(=O)N1)[C@@H](C)CC)C(=O)N[C@@H](CCCNC(=N)N)C(=O)N[C@@H](C)C(=O)N[C@@H](C)C(=O)N[C@@H](CCC(N)=O)C(=O)N[C@@H](CCC(=O)O)C(=O)N[C@@H](CCC(N)=O)C(=O)N[C@@H](CCC(N)=O)C(=O)N[C@@H](CCC(=O)O)C(=O)N[C@@H](CCCCN)C(=O)N[C@@H](CC(N)=O)C(=O)N[C@@H](CCC(=O)O)C(=O)N[C@@H](C)C(=O)N[C@@H](C)C(=O)N[C@@H](CC(C)C)C(=O)N[C@@H](CCCNC(=N)N)C(N)=O
# B2: peptide 80 (peptide)
# peptide: Ac-A[hCys]YAA[hCys]IEALIRKAQEQQEKNEAALR-NH2
# modifications: linker 2-6 via B21
# SMILES: CC[C@H](C)[C@H](NC(=O)[C@@H]1CCSCc2ccc3ccc(cc3c2)CSCC[C@H](NC(=O)[C@H](C)NC(C)=O)C(=O)N[C@@H](Cc2ccc(O)cc2)C(=O)N[C@@H](C)C(=O)N[C@@H](C)C(=O)N1)C(=O)N[C@@H](CCC(=O)O)C(=O)N[C@@H](C)C(=O)N[C@@H](CC(C)C)C(=O)N[C@H](C(=O)N[C@@H](CCCNC(=N)N)C(=O)N[C@@H](CCCCN)C(=O)N[C@@H](C)C(=O)N[C@@H](CCC(N)=O)C(=O)N[C@@H](CCC(=O)O)C(=O)N[C@@H](CCC(N)=O)C(=O)N[C@@H](CCC(N)=O)C(=O)N[C@@H](CCC(=O)O)C(=O)N[C@@H](CCCCN)C(=O)N[C@@H](CC(N)=O)C(=O)N[C@@H](CCC(=O)O)C(=O)N[C@@H](C)C(=O)N[C@@H](C)C(=O)N[C@@H](CC(C)C)C(=O)N[C@@H](CCCNC(=N)N)C(N)=O)[C@@H](C)CC
# B3: peptide 70 (peptide)
# peptide: Ac-ACYAACIDALIRAAQEQQEKNEAALR-NH2
# modifications: linker 2-6 via pXylylene
# SMILES: CC[C@H](C)[C@H](NC(=O)[C@H](CC(C)C)NC(=O)[C@H](C)NC(=O)[C@H](CC(=O)O)NC(=O)[C@@H](NC(=O)[C@@H]1CSCc2ccc(cc2)CSC[C@H](NC(=O)[C@H](C)NC(C)=O)C(=O)N[C@@H](Cc2ccc(O)cc2)C(=O)N[C@@H](C)C(=O)N[C@@H](C)C(=O)N1)[C@@H](C)CC)C(=O)N[C@@H](CCCNC(=N)N)C(=O)N[C@@H](C)C(=O)N[C@@H](C)C(=O)N[C@@H](CCC(N)=O)C(=O)N[C@@H](CCC(=O)O)C(=O)N[C@@H](CCC(N)=O)C(=O)N[C@@H](CCC(N)=O)C(=O)N[C@@H](CCC(=O)O)C(=O)N[C@@H](CCCCN)C(=O)N[C@@H](CC(N)=O)C(=O)N[C@@H](CCC(=O)O)C(=O)N[C@@H](C)C(=O)N[C@@H](C)C(=O)N[C@@H](CC(C)C)C(=O)N[C@@H](CCCNC(=N)N)C(N)=O
# B4: peptide 71 (peptide)
# peptide: Ac-ACYAACIEALIRKAQEQQEKNEAALR-NH2
# modifications: linker 2-6 via pXylylene
# SMILES: CC[C@H](C)[C@H](NC(=O)[C@@H]1CSCc2ccc(cc2)CSC[C@H](NC(=O)[C@H](C)NC(C)=O)C(=O)N[C@@H](Cc2ccc(O)cc2)C(=O)N[C@@H](C)C(=O)N[C@@H](C)C(=O)N1)C(=O)N[C@@H](CCC(=O)O)C(=O)N[C@@H](C)C(=O)N[C@@H](CC(C)C)C(=O)N[C@H](C(=O)N[C@@H](CCCNC(=N)N)C(=O)N[C@@H](CCCCN)C(=O)N[C@@H](C)C(=O)N[C@@H](CCC(N)=O)C(=O)N[C@@H](CCC(=O)O)C(=O)N[C@@H](CCC(N)=O)C(=O)N[C@@H](CCC(N)=O)C(=O)N[C@@H](CCC(=O)O)C(=O)N[C@@H](CCCCN)C(=O)N[C@@H](CC(N)=O)C(=O)N[C@@H](CCC(=O)O)C(=O)N[C@@H](C)C(=O)N[C@@H](C)C(=O)N[C@@H](CC(C)C)C(=O)N[C@@H](CCCNC(=N)N)C(N)=O)[C@@H](C)CC
# B5: peptide 73 (peptide)
# peptide: Ac-ACYAACIEALIRAAQEQQEKNEALLR-NH2
# modifications: linker 2-6 via pXylylene
# SMILES: CC[C@H](C)[C@H](NC(=O)[C@H](CC(C)C)NC(=O)[C@H](C)NC(=O)[C@H](CCC(=O)O)NC(=O)[C@@H](NC(=O)[C@@H]1CSCc2ccc(cc2)CSC[C@H](NC(=O)[C@H](C)NC(C)=O)C(=O)N[C@@H](Cc2ccc(O)cc2)C(=O)N[C@@H](C)C(=O)N[C@@H](C)C(=O)N1)[C@@H](C)CC)C(=O)N[C@@H](CCCNC(=N)N)C(=O)N[C@@H](C)C(=O)N[C@@H](C)C(=O)N[C@@H](CCC(N)=O)C(=O)N[C@@H](CCC(=O)O)C(=O)N[C@@H](CCC(N)=O)C(=O)N[C@@H](CCC(N)=O)C(=O)N[C@@H](CCC(=O)O)C(=O)N[C@@H](CCCCN)C(=O)N[C@@H](CC(N)=O)C(=O)N[C@@H](CCC(=O)O)C(=O)N[C@@H](C)C(=O)N[C@@H](CC(C)C)C(=O)N[C@@H](CC(C)C)C(=O)N[C@@H](CCCNC(=N)N)C(N)=O
# B6: peptide 74 (peptide)
# peptide: Ac-ECYAACIEALIRAAQEQQEKNEAALR-NH2
# modifications: linker 2-6 via pXylylene
# SMILES: CC[C@H](C)[C@H](NC(=O)[C@H](CC(C)C)NC(=O)[C@H](C)NC(=O)[C@H](CCC(=O)O)NC(=O)[C@@H](NC(=O)[C@@H]1CSCc2ccc(cc2)CSC[C@H](NC(=O)[C@H](CCC(=O)O)NC(C)=O)C(=O)N[C@@H](Cc2ccc(O)cc2)C(=O)N[C@@H](C)C(=O)N[C@@H](C)C(=O)N1)[C@@H](C)CC)C(=O)N[C@@H](CCCNC(=N)N)C(=O)N[C@@H](C)C(=O)N[C@@H](C)C(=O)N[C@@H](CCC(N)=O)C(=O)N[C@@H](CCC(=O)O)C(=O)N[C@@H](CCC(N)=O)C(=O)N[C@@H](CCC(N)=O)C(=O)N[C@@H](CCC(=O)O)C(=O)N[C@@H](CCCCN)C(=O)N[C@@H](CC(N)=O)C(=O)N[C@@H](CCC(=O)O)C(=O)N[C@@H](C)C(=O)N[C@@H](C)C(=O)N[C@@H](CC(C)C)C(=O)N[C@@H](CCCNC(=N)N)C(N)=O
# B7: peptide 79 (peptide)
# peptide: Ac-A[hCys]YAA[hCys]IEALIRKAQEQQEKNEAALR-NH2
# modifications: linker 2-6 via B21
# SMILES: CC[C@H](C)[C@H](NC(=O)[C@@H]1CCSCc2ccc3ccc(cc3c2)CSCC[C@H](NC(=O)[C@H](C)NC(C)=O)C(=O)N[C@@H](Cc2ccc(O)cc2)C(=O)N[C@@H](C)C(=O)N[C@@H](C)C(=O)N1)C(=O)N[C@@H](CCC(=O)O)C(=O)N[C@@H](C)C(=O)N[C@@H](CC(C)C)C(=O)N[C@H](C(=O)N[C@@H](CCCNC(=N)N)C(=O)N[C@@H](CCCCN)C(=O)N[C@@H](C)C(=O)N[C@@H](CCC(N)=O)C(=O)N[C@@H](CCC(=O)O)C(=O)N[C@@H](CCC(N)=O)C(=O)N[C@@H](CCC(N)=O)C(=O)N[C@@H](CCC(=O)O)C(=O)N[C@@H](CCCCN)C(=O)N[C@@H](CC(N)=O)C(=O)N[C@@H](CCC(=O)O)C(=O)N[C@@H](C)C(=O)N[C@@H](C)C(=O)N[C@@H](CC(C)C)C(=O)N[C@@H](CCCNC(=N)N)C(N)=O)[C@@H](C)CC
# B8: peptide 72 (peptide)
# peptide: Ac-ACYAACIEELIRKAQEQQEKNEAALR-NH2
# modifications: linker 2-6 via pXylylene
# SMILES: CC[C@H](C)[C@H](NC(=O)[C@@H]1CSCc2ccc(cc2)CSC[C@H](NC(=O)[C@H](C)NC(C)=O)C(=O)N[C@@H](Cc2ccc(O)cc2)C(=O)N[C@@H](C)C(=O)N[C@@H](C)C(=O)N1)C(=O)N[C@@H](CCC(=O)O)C(=O)N[C@@H](CCC(=O)O)C(=O)N[C@@H](CC(C)C)C(=O)N[C@H](C(=O)N[C@@H](CCCNC(=N)N)C(=O)N[C@@H](CCCCN)C(=O)N[C@@H](C)C(=O)N[C@@H](CCC(N)=O)C(=O)N[C@@H](CCC(=O)O)C(=O)N[C@@H](CCC(N)=O)C(=O)N[C@@H](CCC(N)=O)C(=O)N[C@@H](CCC(=O)O)C(=O)N[C@@H](CCCCN)C(=O)N[C@@H](CC(N)=O)C(=O)N[C@@H](CCC(=O)O)C(=O)N[C@@H](C)C(=O)N[C@@H](C)C(=O)N[C@@H](CC(C)C)C(=O)N[C@@H](CCCNC(=N)N)C(N)=O)[C@@H](C)CC
# Molecular target: gp41 of HIV-1 strain HXB2D with mutation V38A (HIV-1 strain HXB2D, UniProt P04578)
# Experiment: cell-based or functional assay
row,Binder,"fold change in EC50, HIV-HXB2D V38A mutant [fold]"
1,B1,61
2,Ac-A[hCys]YAA[hCys]IEALIRAAQEQQEKNEAALR-NH2 (linker 2-6 via B1; reading uncertain) [peptide 77],39
3,B2,40
4,B3,11
5,"Ac-[dA]CYAACIEALIRAAQEQQEKNEAAL[dR]-NH2 (linker 2-6 via 2,7‑dimethylnaphthyl) [peptide 76]",48
6,B4,11
7,B5,60
8,B6,33
9,"Ac-[dA]CYAACIEALIRAAQEQQEKNEAAL[dR]-NH2 (linker 2-6 via 2,7‑dimethylnaphthyl) [peptide 75]",21
10,B7,27
11,B8,10
